In the DeepSol protein solubility set:

Assay: soluble on expression in E. coli; label from the status in PepcDB or PDB records

Sequence	soluble on expression in E. coli
MAKMRRYPAVAGQFYPEGDALIEMLSSFFKDLGEEGTKRTITAGVAPHAGYVFSGFTASRTYKAIYEDGLPEVFVIFGPNHTGLGSPIALYPEGEWITPMGSIKVDSKFAKEIVKRSGIADLDDLAHKYEHSIEVQLPFIQYIAEKAGVEVKIVPITLGIQDEEVSRSLGRSIFEASTSLGRDTIIIASTDFMHYGSFYGYVPFRGRPEELPNMVRDWDMRIIRRILDFDLDGMFSEIREMNHTMCGPGGVGAGIIYSRLMKAKEAELLHYTTSFEVSRSPDAIVGYASIIMKRLEHHHHHH	not soluble
MKSGRFIGVMSGTSLDGVDVVLAAIDETMVAQQASLTWPIPVHLKKGILDICQGQPLTLSQLGQLDTQLGRLFAQAVNALLAQQRLQPRDIVAIGCHGQTVWHEPTGEAPHTLQIGDNNHIVAHTGITVVGDFRRRDIALGGQGAPLVPAFHHALLGHPTEKRMVLNIGGIANLSLLFPGQAVRGYDTGPGNMLMDAWIWRQCAQPYDKDAAWAKEGQVILPLLQKMLRDPYFAASAPKSTGREYFNYGWLERHLAAFPGADARDVQATLAELTAVSIAQQVLLNGGCERLMVCGGGGRNPLVMARLAALLPGIEVSTTDKAGISGDDMEALAFAWLAWRTLAGLPGNLPSVTGATEASVLGAIYPANPITQS	not soluble
MGSDKIHHHHHHMKGIEIVNYGGPEVAKVRTFSSPVRRSGEVMIQVVASSINPVDIKYMTPETIQKIPSFPAILGWDIAGIIIEADKNSNFSAGERVVAFHPQGSWQQLVTASENQVVKLPDNIDFISGGSIPLAASTALQALRRLRLEPGERLLVTGAAGSVGYYALQFALKMGVKASGLVRNKNQKMSINLLDTEIYTNDDPIPEFDAVFDTAGVLNRIDVIHKGGRLVTVSDEQIDPQVLKHTSFAEHNYVRVNKEDLEEIVHLVSEAKIETRVAKIYSFNNVQEALAQAIKSGNNGKVMLIF	not soluble
PTQSPSEFIAELARCAQPIAQANDLYASVMMAQAIVESGWGASTLSKAPNYNLFGIKGSYNGQSVYMDTWEYLNGKWLVKKEPFRKYPSYMESFQDNAHVLKTTSFQAGVYYYAGAWKSNTSSYRDATAWLTGRYATDPSYNAKLNNVITAYNL	not soluble
MEFKDFPLKPEILEALHGRGLTTPTPIQAAALPLALEGKDLIGQARTGTGKTLAFALPIAERLAPSQERGRKPRALVLTPTRELALQVASELTAVAPHLKVVAVYGGTGYGKQKEALLRGADAVVATPGRALDYLRQGVLDLSRVEVAVLDEADEMLSMGFEEEVEALLSATPPSRQTLLFSATLPSWAKRLAERYMKNPVLINVIK	soluble
MTPDELARLTGYSRQTINKWVRKEGWTTSPKPGVQGGKARLVHVNEQVREYIRNAERPEGQGEAPALSGDAPLEVLLVTLAKEMTPVEQKQFTSLLLREGIIGLLQRLGIRDSK	not soluble
MGSDKIHHHHHHMALPEFKIAQLRHFVWVAELKGFHTAAEKACRTQPAISLSIRDLENKLSTILFEKRNAKTSNTELTPFGQYFLPKAKELIAHHDNVAQDMALMSEHKTGHLRLASVPSIACRMLPELLSKFIADVPELHISFYDDNSEAVLRKVEKQQVDIGIASLPHGHEHADITFTPIWEDQLGVVCREDHPFAEMTELHWKELRKQRLIRNGTSRLLEDTEAEPLLSDSQFLISNMLSLIAMLEEGLGITTLPWFAFPKNNSKLRFIPLTTPKIVRHIGIVQLKNKSLSPAAEALANFILKNTNQKKTSDLNPE	not soluble
MSFPAASIDLGTNTARLLIGSVEAGRIEHLLVKRHITRLGGGFTKERGISPEAWSRSLAALVDFADEMNRAGVVRVRAVATSAVRDAVNGGDFCADVAERTGISLEVIDGEEEALLTLAGVLSGLDRKEGRFFVFDVGGGSTEYTLASGNAPLYTESLPLGVVRLTEGKSDLPAMEEKVGRELAGLRERLAGRALDGQLAGATLVGTAGTATTLAAISLGMTDYDYRRVNNHLLSRDEIARILALLLPLSPAERLAVPGLEKGREDLIVAGTLITLATMDLFGFESMTVSDFGLLEGALIGLARTDELEHHHHHH	not soluble
MVQNNDVDGAFGLLNRLMDSEGMLKIIRRTQFYQKPYMQRKTLSMEASTAIFNEDMNRKMKFLVRKNRPDKHPGQVTS	not soluble
MTSITAIFFDLDGTLVDSSIGIHNAFTYTFKELGVPSPDAKTIRGFMGPPLESSFATCLSKDQISEAVQIYRSYYKAKGIYEAQLFPQIIDLLEELSSSYPLYITTTKDTSTAQDMAKNLEIHHFFDGIYGSSPEAPHKADVIHQALQTHQLAPEQAIIIGDTKFDMLGARETGIQKLAITWGFGEQADLLNYQPDYIAHKPLEVLAYFQ	soluble
EIRDTKKDLKESEMRLSLALDASNMAAWHIDMDTRHIAYSDTLAVIFGYPKDTTLVWSDLVAQIYPEDMHLYQTARQQMETTGLYEYEIRIVWPDNSIKWIKTIGKMLLDSDGSQRRMIGITRDIT	not soluble
MEDLNFEERGSTQIPASLQQHFSAKLGRQNELEKTPSRGGLGLVVNSSKTPGGKSLQSLASACKVPPSTKKNTIPIAFECYEDETDDQIADVATIKKTEKHPCSPIDTANRCETFDSLAADIEDDMLNLEDQDVVLSEDRPYGDVIDPAESEAEALAELGVEEWDSYPPIDPASRIGDDFNYVLRTEDFAEEGDVKLEETRHRTVIADIDEVKMSKAERNELFSMLADDLDSYDLLAEEANLPL	not soluble
MGSDKIHHHHHHMRIALVTNTFLPLTGGGEFVVHHLGNQWSMQGHDVCVFNSLTAEVAHPEALYKVMRYKIMRGATRFGYHRFPWVNVSTRSLNRQINYFNPDFVSGHFSIPVALYLDNLKPKRIWSITSHGSDIVRNDVNSQRDQYDIDNKLANSLNNASSVIAISNSAKANLLDIGVKPSLIRVIPNGVELNRFKTKANTNIREMFNIPEHKKLVLTVGRNSLVKNLGLGINAVAEIAKSRSDIHYLIVGGGTSQLNETIINRGLRDTVTTCENLAGESLVAAYQQSDIFLSTSNYECCPLVILEAMASGLPIVATQVAGNVDLIDNEVNGLLVGRNNHMHIVNAITMLIADKRLCHSISTTNYDKVSDYSWDTVSRSYLELLQ	not soluble
MNNFILLEEQLIKKSQQKRRTSPSNFKVRFFVLTKASLAYFEDRHGKKRTLKGSIELSRIKCVEIVKSDISIPCHYKYPFQVVHDNYLLYVFAPDRESRQRWVLALKEETRNNNSLVPKYHPNFWMDGKWRCCSQLEKLATGCAQYDPTKNASKKPLPPTPEDNRRPLWEPEETVVIALYDYQTNDPQELALRRNEEYCLLDSSEIHWWRVQDRNGHEGYVPSSYLVEKSPNNLETYEWYNKSISRDKAEKLLLDTGKEGAFMVRDSRTAGTYTVSVFTKAVVSENNPCIKHYHIKETNDNPKRYYVAEKYVFDSIPLLINYHQHNGGGLVTRLRYPVCFGRQKAPVTAGLRYGKWVIDPSELTFVQEIGSGQFGLVHLGYWLNKDKVAIKTIREGAMSEEDFIEEAEVMMKLSHPKLVQLYGVCLEQAPICLVFEFMEHGCLSDYLRTQRGLFAAETLLGMCLDVCEGMAYLEEACVIHRDLAARNCLVGENQVIKVSDFGMTRFVLDDQYTSSTGTKFPVKWASPEVFSFSRYSSKSDVWSFGVLMWEVFSEGKIPYENRSNSEVVEDISTGFRLYKPRLASTHVYQIMNHCWKERPEDRPAFSRLLRQLAEIAESGL	soluble
KRYIPSVNDFVIGVIIGTFSDSYKVSLQNFSSSVSLSYMAFPNASKKNRPTLQVGDLVYARVCTAEKELEAEIECFDSTTGRDAGFGILEDGMIIDVNLNFARQLLFNNDFPLLKVLAAHTKFEVAIGLNGKIWVKCEELSNTLACYRTIMECCQKNDTAAFKDIAKRQFKEILT	soluble
MPLHQVVEPAFYIVVVLDLVSGRLNGHDKDTLGLAQQLANRNSGGGAVVAIAFGELKDDSLNKAGVDRLIHINDEQYDQYNPEQRCNDLQGIIGELDPQHILLPDSINGGGDLGRRLAAALQQRPACGVWKLNDDTVVCR	not soluble
MAKIDIIDNYETLLISVEEIRASLESLHAWLDKDIDWDSQCDWYDFISQHSSQIAILNLIMYRLDSLEVEHRSVIENTMKGK	not soluble
MSLKILVYGINYSPELTGIGKYTGEMVAWMAQEGHEVRVITAPPYYPQWKVGERYSAWRYRWEEGEATVWRCPLYVPKQPSTLKRLLHLGSFALSSFFPLMAQRRWKPDRIIGVVPTLFCTPGMRLLATLSGARTVLHIQDYEVDAMLGLGMAGKGKRGSVARLATAFERSALRNVDNVSTISRSMMNKAREKGVAAEKILFFPNWSEVARFQDVNDADVTALRQQLGLPEGKKIVLYSGNIGEKQGLEKVIDAAERLRDRPLIFAIVGQGGGKARMENMARERGLANIKFLPLQPYDALPALLKMGDCHLVVQKRGAADAVLPSKLTNILAVGGNAVITAEPHTELGQLCARYPGIAVCVEPESTDALVDGISQALAMPKNNMTAREYAERTLNKENVLRQFIADIRGEGHHHHHH	soluble
SLSETLYTGISQLATPRPGPQRGAAMGDLHIIEDAALLVRGGVIQWVGPRAAAPTATHVHDLGGRAVVPGLVDPHTHAVWAGDRLSDWEAKLQGATYEEILARGGGIRSTMRATAAADVAELVALARPRLASLRASGATTTEVKSGYGLDFDAELRMLRAVRELQAEFELRPTLLIHVPPQEGRAEYVVGVCAELIPQVAREGLAEALDVFCEKEAFSVEETRTMFAAAQAHGLRVKLHADQFHAIGGTELACEVGALSVDHLEASGAAQIAALAASETVATILPGVTLHLGLPAAPGRQLIDSGAIVAIGTDLNPGSSPLFSTQLALALAVRLCLLTPAEALSACTVNAAYALGLSDRGSLSAGQRADFLVLNGQDWREVAYTLGGNAVAEVYLAGAQL	soluble
AGLENTDHTNNEHRLTQLLSIAEECETLDRLKQLVDSGRIFTAYNGFEPSGRIHIAQALITVMNTNNMIECGGQMIIYIADWFAKMNLKMNGDINKIRELGRYFIEVFKACGINLDGTRFIWASEFIASNPSYIERMLDIAEFSTISRVKRCCQIMGRNESDCLKASQIFYPCMQAADVFELVPEGIDICQLGIDQRKVNMLAIEYANDRGLKIPISLSHHMLMSLSGPKKKMSKSDPQGAIFMDDTEQEVSEKISRAYCTDETFDNPIFEYIKYLLLRWFGTLNLCGKIYTDIESIQEDFSSMNKRELKTDVANYINTIIDLVREHFKKPELSELLSNVKSYQQPSK	soluble
MSLEAPVYKEIFGAVKIYELQKVIKMDTETEDVPMFTVQNLPREDIYKTIGEMAIIVPMKNEKLHLVDGVLKAIPHKSPIIIVSNSKRKGPNRFKQEVDLVKHFCNLTHSKVIMIHQRDPGLAEAFRETGYEDILDEKGLVRSGKGEGMLIGIMLAKAIGAKYVGFVDADNYIPGAVNEYVKDYAAGFLMSESEYAMVRLHWRHKPKVSRGTLYFKKWGRVSEITNRYLNQLISEKTAFETTIMVTGNAGEHAMTMKLAEILPFSTGYSIEPYEIVYLLERFGSWENVEEFQDVFDQGIEIFQIETLNPHFHEDKGQEHVKEMVLLSLTTIYHSKLASERLKRQILEDLRMHGIIKEDEEPPKPRVMRPIKDIDIKKWMKTLESNQETLLRFDLEGHHHHHH	soluble
MSLGSIKDNLSEIRNKIDKAAKKVDRDSKEITLLAVTKTVDVDLVNEAMREGITSVGENKPQELARKYDIIGDKLNWHLIGTLQTNKVKYIIDKVCMIHSLDRIALCEEIQKRAEQINREIDCLVQVNISKEESKHGLDREEVVDFVKEVSEKYKNIKIKGLMTMAPFIEDEDEIRGVFKGLKDLSKQIKELNIPNVGMDVLSMGMSHDYEIAIEEGATIVRVGTSIFGERNYNKEGHHHHHH	soluble
